Literature values in patent US10464968B2, “Method for producing a composition for treating a tooth lesion” (CREDENTIS AG, priority 2012, dated 2019).
Where two headings read alike, the source gives them in different places. No end group written: not given here.

QQRFEWEFEQQ [Example P11-4, self-assembling peptide of 11 amino acids]
phase state of aqueous solution (above pH 7.5): isotropic fluid | phase state of aqueous solution (below pH 3): nematic gel | phase state of aqueous solution (between about pH 5 and about pH 3): flocculate | phase state of aqueous solution (between about pH 7.5 and about pH 5): nematic fluid
